From the Human Domainome abundance scans (Beltran et al. 2025)
± gives the uncertainty stated by the source.

B1: Zinc finger MYM-type protein 3, residues 405 to 444; numbered along this chain, Q14202 (parent)
chain: DATRCSICQKTGEVLHEVSNGSVVHRLCSDSCFSKFRANK

Variants of: B1
Assay: abundance fitness (aPCA) (normalised: wild type 0, dead -1); higher = more abundant; growth selection in yeast, the domain comes from the species named
Conditions: Homo sapiens

Variant	abundance fitness
DATRCSICQKTGEVLHEVSNGSVVHRLCSDSCFIKFRANK [S34I]	-0.126 ± 0.12
DATRCSICQKTGEVLHEVSNGSVVHRLCSDSCFFKFRANK [S34F]	-0.18 ± 0.087
DATRCSICQKTGEVLHEVSNGSVVHRLCSDSCFTKFRANK [S34T]	0.125 ± 0.06
DATRCPICQKTGEVLHEVSNGSVVHRLCSDSCFSKFRANK [S6P]	-0.009 ± 0.073
DATRCLICQKTGEVLHEVSNGSVVHRLCSDSCFSKFRANK [S6L]	-0.312 ± 0.06
DATRCQICQKTGEVLHEVSNGSVVHRLCSDSCFSKFRANK [S6Q]	-0.285 ± 0.072
DATRCAICQKTGEVLHEVSNGSVVHRLCSDSCFSKFRANK [S6A]	0.104 ± 0.054
DATRCSICQKTGEVLHEVSNGSVVHWLCSDSCFSKFRANK [R26W]	-0.21 ± 0.061
DATRCSICQKTGNVLHEVSNGSVVHRLCSDSCFSKFRANK [E13N]	-0.216 ± 0.086
DATRCSICQKTFEVLHEVSNGSVVHRLCSDSCFSKFRANK [G12F]	-0.414 ± 0.15
DATRCSICQKTNEVLHEVSNGSVVHRLCSDSCFSKFRANK [G12N]	-0.511 ± 0.17
DATRCSICQKTIEVLHEVSNGSVVHRLCSDSCFSKFRANK [G12I]	-0.21 ± 0.11
DATRCSICQKTPEVLHEVSNGSVVHRLCSDSCFSKFRANK [G12P]	-0.639 ± 0.082
DATRCSICQKTVEVLHEVSNGSVVHRLCSDSCFSKFRANK [G12V]	-0.137 ± 0.062
DATRCSICQKTTEVLHEVSNGSVVHRLCSDSCFSKFRANK [G12T]	-0.092 ± 0.067
DATRCSICQKTSEVLHEVSNGSVVHRLCSDSCFSKFRANK [G12S]	-0.115 ± 0.063
RATRCSICQKTGEVLHEVSNGSVVHRLCSDSCFSKFRANK [D1R]	-0.165 ± 0.065
NATRCSICQKTGEVLHEVSNGSVVHRLCSDSCFSKFRANK [D1N]	0.142 ± 0.13
MATRCSICQKTGEVLHEVSNGSVVHRLCSDSCFSKFRANK [D1M]	0.112 ± 0.098
FATRCSICQKTGEVLHEVSNGSVVHRLCSDSCFSKFRANK [D1F]	-0.219 ± 0.11
DATRCSICQKTGEVLHEVSNGSVVHRPCSDSCFSKFRANK [L27P]	-0.458 ± 0.078

Variant	abundance fitness
DATRCSICQKTGEVLHEVSNGSVVHRLCSDSCFSSFRANK [K35S]	0.02 ± 0.058
DATRCSICQKTGEVLHEVSNGSVVHRLCSDSCFSQFRANK [K35Q]	0.146 ± 0.067
DATRCSICQKTGEVLHEVSNGSVVHRLCSDSCFSWFRANK [K35W]	-0.84 ± 0.084
DATRCSICQKTGEVPHEVSNGSVVHRLCSDSCFSKFRANK [L15P]	-0.033 ± 0.069
DATRCSICQKTGEVNHEVSNGSVVHRLCSDSCFSKFRANK [L15N]	-0.038 ± 0.15
DATRCSICQKTGEVSHEVSNGSVVHRLCSDSCFSKFRANK [L15S]	0.047 ± 0.065
DATRCSICQKTGEVIHEVSNGSVVHRLCSDSCFSKFRANK [L15I]	0.001 ± 0.07
DATRCSICQKTGEVLHEVSNGSVVHRLCSDSCFSKFRGNK [A38G]	0.011 ± 0.05
DATRCSICQKTGEVLHEVSNGSVVHRLCSDSCFSKFRWNK [A38W]	-0.353 ± 0.059
DATRCSICQKTGEVLHEVSNGSVVHRLCSDSCFSKFRENK [A38E]	0.015 ± 0.059
DATRCSICQKTGEVLHEVSNGSVVHRLCSDSCISKFRANK [F33I]	-0.067 ± 0.11
DATRCSICQKTGEVLHEVSNGSVVHRLCSDSCYSKFRANK [F33Y]	-0.094 ± 0.1
DATRCSICQKTGEVLHEVSNGSVVHRLCSDSCSSKFRANK [F33S]	-0.015 ± 0.058
DATRCSICQKTGEVLHEVSNGSVVHRLASDSCFSKFRANK [C28A]	-0.594 ± 0.058
DATRCSICQKTGEVLHEVSNGSVVHRLDSDSCFSKFRANK [C28D]	-0.529 ± 0.081
DATRCSICDKTGEVLHEVSNGSVVHRLCSDSCFSKFRANK [Q9D]	-0.293 ± 0.11
DATRCSICEKTGEVLHEVSNGSVVHRLCSDSCFSKFRANK [Q9E]	0.023 ± 0.075
DATRCSICCKTGEVLHEVSNGSVVHRLCSDSCFSKFRANK [Q9C]	-0.215 ± 0.1
DATRCSICQKTGEVLHEISNGSVVHRLCSDSCFSKFRANK [V18I]	-0.067 ± 0.11
DATRCSICQKTGEVLHEVSNGRVVHRLCSDSCFSKFRANK [S22R]	-0.136 ± 0.051
DATRCSICQKTGEVLHEVSNGEVVHRLCSDSCFSKFRANK [S22E]	0.006 ± 0.056

Variant	abundance fitness
DATRCSICQKTGEVLHEVSNGAVVHRLCSDSCFSKFRANK [S22A]	-0.109 ± 0.06
DATRCSICQKTGEVLHEVSNGCVVHRLCSDSCFSKFRANK [S22C]	-0.56 ± 0.077
DATRCSICQKTGEVLHEVSNGQVVHRLCSDSCFSKFRANK [S22Q]	-0.001 ± 0.065
DATRCSICQKTGEVLHEVSNGYVVHRLCSDSCFSKFRANK [S22Y]	-0.303 ± 0.094
DATRCSICQKTGEVLHEVSNGSVVHRLCSDSCFSKFIANK [R37I]	-0.512 ± 0.13
DATRCSICQKTGEVLHEVSNGSVVHRLCSDSCFSKFHANK [R37H]	0.137 ± 0.086
DATRCSICQKTGEDLHEVSNGSVVHRLCSDSCFSKFRANK [V14D]	-0.228 ± 0.075
DATRCSICQKTGEVLHEVSNGSVVHRLCSQSCFSKFRANK [D30Q]	-0.079 ± 0.096
DATRCSICQKTGEVLHEVSNGSVVHRLCSMSCFSKFRANK [D30M]	-0.28 ± 0.088
DATRCSICQKTGEVLHEVSNGSVVHRLCSISCFSKFRANK [D30I]	-0.734 ± 0.21
DATRCSICQKTGEVLHEVSNGSVVHRLCSKSCFSKFRANK [D30K]	-0.109 ± 0.096
DATRCSICQMTGEVLHEVSNGSVVHRLCSDSCFSKFRANK [K10M]	-0.232 ± 0.083
DATRCSICQSTGEVLHEVSNGSVVHRLCSDSCFSKFRANK [K10S]	-0.231 ± 0.06
DATRCSICQCTGEVLHEVSNGSVVHRLCSDSCFSKFRANK [K10C]	-0.367 ± 0.07
DATRVSICQKTGEVLHEVSNGSVVHRLCSDSCFSKFRANK [C5V]	-0.999 ± 0.082
DATRYSICQKTGEVLHEVSNGSVVHRLCSDSCFSKFRANK [C5Y]	-0.97 ± 0.17
DATRPSICQKTGEVLHEVSNGSVVHRLCSDSCFSKFRANK [C5P]	-1.02 ± 0.17
DATRCSICQKTGEVLHEVSNGSVCHRLCSDSCFSKFRANK [V24C]	-0.206 ± 0.073
DATRCSICQKTGEVLHEVSNGSVGHRLCSDSCFSKFRANK [V24G]	-0.255 ± 0.052
DATRCSICQKTGEVLHEVSNESVVHRLCSDSCFSKFRANK [G21E]	0.008 ± 0.063
DATRCSICQKTGEVLHEVSNQSVVHRLCSDSCFSKFRANK [G21Q]	0.043 ± 0.064
